These results are taken from PMC9860250.

For data set [1], the target named is T1, Lsm2-8 heteroheptameric ring (UniProt P38203;P57743;P40070;P40089;Q06406;P53905;P47093 …).
T1 sequence 1: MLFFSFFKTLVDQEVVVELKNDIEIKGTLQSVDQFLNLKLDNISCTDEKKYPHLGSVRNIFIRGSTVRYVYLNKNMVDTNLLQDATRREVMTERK
T1 sequence 2: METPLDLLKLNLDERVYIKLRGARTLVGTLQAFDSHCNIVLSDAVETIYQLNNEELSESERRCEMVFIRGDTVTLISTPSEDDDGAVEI
T1 sequence 3: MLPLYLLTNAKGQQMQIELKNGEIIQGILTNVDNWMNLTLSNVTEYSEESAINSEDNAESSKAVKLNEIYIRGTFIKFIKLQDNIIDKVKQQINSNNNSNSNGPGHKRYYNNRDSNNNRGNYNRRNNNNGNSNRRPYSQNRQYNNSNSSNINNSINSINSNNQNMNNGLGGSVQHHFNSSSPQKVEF
T1 sequence 4: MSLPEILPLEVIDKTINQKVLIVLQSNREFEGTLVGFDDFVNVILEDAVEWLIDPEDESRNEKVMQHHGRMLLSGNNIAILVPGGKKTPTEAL
T1 sequence 5: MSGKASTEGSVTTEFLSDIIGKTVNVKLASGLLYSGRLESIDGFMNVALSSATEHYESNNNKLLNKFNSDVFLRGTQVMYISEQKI
T1 sequence 6: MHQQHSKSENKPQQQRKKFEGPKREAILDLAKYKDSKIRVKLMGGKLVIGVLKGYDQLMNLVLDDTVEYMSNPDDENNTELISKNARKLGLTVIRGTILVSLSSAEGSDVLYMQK
T1 sequence 7: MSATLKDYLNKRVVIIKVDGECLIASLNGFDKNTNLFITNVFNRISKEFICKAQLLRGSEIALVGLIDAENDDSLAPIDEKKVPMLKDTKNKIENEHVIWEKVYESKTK
Kind of data set: EMSA. A general note: Mobility shift assays separate free from complexed probe on a gel.

For data set [2], the target named is T1, Lsm2-8 heteroheptameric ring. The data set is described as follows: EMSA. This is another data set of the same source.

Like-named read-outs stand apart in the source and are kept apart here.

B1: U6_WT/U2_WT helix II (dsRNA)
RNA 1: UACAAAGAGAUUUAUUUCGUUUU
RNA 2: ACGAAUCUCUUUGCCUUUUGGCUUAGAU
modifications: 3'-phosphate on U6
As to B1, in data set [1], the binding result is “binds”.

B2: U6_WT (ssRNA)
RNA: UACAAAGAGAUUUAUUUCGUUUU
modifications: 3'-phosphate
Consider B2, for which the binding result in data set [2] is recorded as “binds”.
